Key:
HeLa Kyoto [1] = assay: solubility change mitosis vs G1/S (difference of NP-40 vs SDS log2 ratios) (log2 ratio difference); higher = more soluble in mitosis
HeLa Kyoto [2] = assay: thermal stability score vs G1/S (z-score of summed log2 fold changes over temperatures); higher = more thermally stable than in G1/S
HeLa Kyoto [3] = assay: solubility in G1/S (NP-40 vs SDS abundance) (log2 ratio); higher = more soluble; conditions: cell cycle stage: G1/S
[4] = cell cycle stage: early G1 (4.5 h after nocodazole release)
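Wherever solubility change mitosis vs G1/S (difference of NP-40 vs SDS log2 ratios) is given: synchronized HeLa Kyoto cells (double thymidine block for G1/S, nocodazole release for mitosis), protein amounts in NP-40 versus SDS lysates quantified by mass spectrometry, three biological replicates.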
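Wherever solubility in G1/S (NP-40 vs SDS abundance) is given: HeLa Kyoto cells arrested at G1/S by double thymidine block, proteins quantified by TMT10plex mass spectrometry in mild NP-40 versus SDS extracts, three biological replicates.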
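Wherever thermal stability score vs G1/S (z-score of summed log2 fold changes over temperatures) is given: synchronized HeLa Kyoto cells, proteins quantified by TMT10plex mass spectrometry, three biological replicates, mitosis taken 0.5 h after nocodazole release, G1/S directly after double thymidine block.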

Row | Sequence | solubility change mitosis (log2) (HeLa Kyoto [1]) | thermal stability score (HeLa Kyoto [2]; [4]) | thermal stability score (HeLa Kyoto [2]; cell cycle stage: mitosis) | solubility in G1/S (log2) (HeLa Kyoto [3])
1 | MLGPCMLLLLLLLGLRLQLSLGIIPVEEENPDFWNREAAEALGAAKKLQPAQTAAKNLIIFLGDGMGVSTVTAARILKGQKKDKLGPEIPLAMDRFPYVALSKTYNVDKHVPDSGATATAYLCGVKGNFQTIGLSAAARFNQCNTTRGNEVISVMNRAKKAGKSVGVVTTTRVQHASPAGTYAHTVNRNWYSDADVPASARQEGCQDIATQLISNMDIDVILGGGRKYMFRMGTPDPEYPDDYSQGGTRLDGKNLVQEWLAKRQGARYVWNRTELMQASLDPSVTHLMGLFEPGDMKYEIHRDSTLDPSLMEMTEAALRLLSRNPRGFFLFVEGGRIDHGHHESRAYRALTETIMFDDAIERAGQLTSEEDTLSLVTADHSHVFSFGGYPLRGSSIFGLAPGKARDRKAYTVLLYGNGPGYVLKDGARPDVTESESGSPEYRQQSAVPLDEETHAGEDVAVFARGPQAHLVHGVQEQTFIAHVMAFAACLEPYTACDLAPPAGTTDAAHPGRSVVPALLPLLAGTLLLLETATAP [ALPP] | -0.115 | -3.03 | -2.91 | -0.46
2 | MLPFLLATLGTTALNNSNPKDYCYSARIRSTVLQGLPFGGVPTVLALDFMCFLALLFLFSILRKVAWDYGRLALVTDADRLRRQERDRVEQEYVASAMHGDSHDRYERLTSVSSSVDFDQRDNGFCSWLTAIFRIKDDEIRDKCGGDAVHYLSFQRHIIGLLVVVGVLSVGIVLPVNFSGDLLENNAYSFGRTTIANLKSGNNLLWLHTSFAFLYLLLTVYSMRRHTSKMRYKEDDLVKRTLFINGISKYAESEKIKKHFEEAYPNCTVLEARPCYNVARLMFLDAERKKAERGKLYFTNLQSKENVPTMINPKPCGHLCCCVVRGCEQVEAIEYYTKLEQKLKEDYKREKEKVNEKPLGMAFVTFHNETITAIILKDFNVCKCQGCTCRGEPRPSSCSESLHISNWTVSYAPDPQNIYWEHLSIRGFIWWLRCLVINVVLFILLFFLTTPAIIITTMDKFNVTKPVEYLNNPIITQFFPTLLLWCFSALLPTIVYYSAFFEAHWTRSGENRTTMHKCYTFLIFMVLLLPSLGLSSLDLFFRWLFDKKFLAEAAIRFECVFLPDNGAFFVNYVIASAFIGNAMDLLRIPGLLMYMIRLCLARSAAERRNVKRHQAYEFQFGAAYAWMMCVFTVVMTYSITCPIIVPFGLMYMLLKHLVDRYNLYYAYLPAKLDKKIHSGAVNQVVAAPILCLFWLLFFSTMRTGFLAPTSMFTFVVLVITIVICLCHVCFGHFKYLSAHNYKIEHTETDTVDPRSNGRPPTAAAVPKSAKYIAQVLQDSEVDGDGDGAPGSSGDEPPSSSSQDEELLMPPDALTDTDFQSCEDSLIENEIHQ [TMEM63B] | -0.109 | -2.78 | -2.41 | -0.0696
3 | MLPRRLLAAWLAGTRGGGLLALLANQCRFVTGLRVRRAQQIAQLYGRLYSESSRRVLLGRLWRRLHGRPGHASALMAALAGVFVWDEERIQEEELQRSINEMKRLEEMSNMFQSSGVQHHPPEPKAQTEGNEDSEGKEQRWEMVMDKKHFKLWRRPITGTHLYQYRVFGTYTDVTPRQFFNVQLDTEYRKKWDALVIKLEVIERDVVSGSEVLHWVTHFPYPMYSRDYVYVRRYSVDQENNMMVLVSRAVEHPSVPESPEFVRVRSYESQMVIRPHKSFDENGFDYLLTYSDNPQTVFPRYCVSWMVSSGMPDFLEKLHMATLKAKNMEIKVKDYISAKPLEMSSEAKATSQSSERKNEGSCGPARIEYA [STARD7] | -0.155 | -1.31 | -0.89 | 0.128
4 | MLQNPQEKSQAYPRRRRPGCYAYRQNPEAIAAAAMYTFLPDNFSPAKPKPSKDLKPLLGSAVLGLLLVLAAVVAWCYYSVSLRKAERLRAELLDLKAGGFSIRNQKGEQVFRLAFRSGALDLDSCSRDGALLGCSLTADGLPLHFFIQTVRPKDTVMCYRVRWEEAAPGRAVEHAMFLGDAAAHWYGGAEMRTQHWPIRLDGQQEPQPFVTSDVYSSDAAFGGILERYWLSSRAAAIKVNDSVPFHLGWNSTERSLRLQARYHDTPYKPPAGRAAAPELSYRVCVGSDVTSIHKYMVRRYFNKPSRVPAPEAFRDPIWSTWALYGRAVDQDKVLRFAQQIRLHHFNSSHLEIDDMYTPAYGDFDFDEVKFPNASDMFRRLRDAGFRVTLWVHPFVNYNSSRFGEGVERELFVREPTGRLPALVRWWNGIGAVLDFTHPKARDWFQGHLRRLRSRYSVASFKFDAGEVSYLPRDFSTYRPLPDPSVWSRRYTEMALPFFSLAEVRVGYQSQNISCFFRLVDRDSVWGYDLGLRSLIPAVLTVSMLGYPFILPDMVGGNAVPQRTAGGDVPERELYIRWLEVAAFMPAMQFSIPPWRYDAEVVAIAQKFAALRASLVAPLLLELAGEVTDTGDPIVRPLWWIAPGDETAHRIDSQFLIGDTLLVAPVLEPGKQERDVYLPAGKWRSYKGELFDKTPVLLTDYPVDLDEIAYFTWAS [KIAA1161] | -0.254 | -4.62 | -3.21 | 0.099
5 | MLVGQGAGLLGPAVVTAAVVLLLSGVGPAHGSEDIVVGCGGFVKSDVEINYSLIEIKLYTKHGTLKYQTDCAPNNGYFMIPLYDKGDFILKIEPPLGWSFEPTTVELHVDGVSDICTKGGDINFVFTGFSVNGKVLSKGQPLGPAGVQVSLRNTGTEAKIQSTVTQPGGKFAFFKVLPGDYEILATHPTWALKEASTTVRVTNSNANAASPLIVAGYNVSGSVRSDGEPMKGVKFLLFSSLVTKEDVLGCNVSPVPGFQPQDESLVYLCYTVSREDGSFSFYSLPSGGYTVIPFYRGERITFDVAPSRLDFTVEHDSLKIEPVFHVMGFSVTGRVLNGPEGDGVPEAVVTLNNQIKVKTKADGSFRLENITTGTYTIHAQKEHLYFETVTIKIAPNTPQLADIVATGFSVCGRISIIRFPDTVKQMNKYKVVLSSQDKDKSLVTVETDAHGSFCFKAKPGTYKVQVMVPEAETRAGLTLKPQTFPLTVTDRPVMDVAFVQFLASVSGKVSCLDTCGDLLVTLQSLSRQGEKRSLQLSGKVNAMTFTFDNVLPGKYKISIMHEDWCWKNKSLEVEVLEDDVSAVEFRQTGYMLRCSLSHAITLEFYQDGNGRENVGIYNLSKGVNRFCLSKPGVYKVTPRSCHRFEQAFYTYDTSSPSILTLTAIRHHVLGTITTDKMMDVTVTIKSSIDSEPALVLGPLKSVQELRREQQLAEIEARRQEREKNGNEEGEERMTKPPVQEMVDELQGPFSYDFSYWARSGEKITVTPSSKELLFYPPSMEAVVSGESCPGKLIEIHGKAGLFLEGQIHPELEGVEIVISEKGASSPLITVFTDDKGAYSVGPLHSDLEYTVTSQKEGYVLTAVEGTIGDFKAYALAGVSFEIKAEDDQPLPGVLLSLSGGLFRSNLLTQDNGILTFSNLSPGQYYFKPMMKEFRFEPSSQMIEVQEGQNLKITITGYRTAYSCYGTVSSLNGEPEQGVAMEAVGQNDCSIYGEDTVTDEEGKFRLRGLLPGCVYHVQLKAEGNDHIERALPHHRVIEVGNNDIDDVNIIVFRQINQFDLSGNVITSSEYLPTLWVKLYKSENLDNPIQTVSLGQSLFFHFPPLLRDGENYVVLLDSTLPRSQYDYILPQVSFTAVGYHKHITLIFNPTRKLPEQDIAQGSYIALPLTLLVLLAGYNHDKLIPLLLQLTSRLQGVGALGQAASDNSGPEDAKRQAKKQKTRRTLRLQEEFQLMWCLVPWRGTLGIHLFSSLPFASEILLETTATCIHY [NOMO2] | -0.136 | -0.17 | -0.401 | -0.0617
6 | MNLAEICDNAKKGREYALLGNYDSSMVYYQGVMQQIQRHCQSVRDPAIKGKWQQVRQELLEEYEQVKSIVSTLESFKIDKPPDFPVSCQDEPFRDPAVWPPPVPAEHRAPPQIRRPNREVRPLRKEMAGVGARGPVGRAHPISKSEKPSTSRDKDYRARGRDDKGRKNMQDGASDGEMPKFDGAGYDKDLVEALERDIVSRNPSIHWDDIADLEEAKKLLREAVVLPMWMPDFFKGIRRPWKGVLMVGPPGTGKTMLAKAVATECGTTFFNVSSSTLTSKYRGESEKLVRLLFEMARFYAPTTIFIDEIDSICSRRGTSDEHEASRRVKSELLIQMDGVGGALENDDPSKMVMVLAATNFPWDIDEALRRRLEKRIYIPLPTAKGRAELLKINLREVELDPDIQLEDIAEKIEGYSGADITNVCRDASLMAMRRRINGLSPEEIRALSKEELQMPVTKGDFELALKKIAKSVSAADLEKYEKWMVEFGSA [KATNAL1] | 0.119 | 1.07 | 0.457 | 0.0559
7 | MPEESSPRRTPQSIPYQDLPHLVNADGQYLFCRYWKPTGTPKALIFVSHGAGEHSGRYEELARMLMGLDLLVFAHDHVGHGQSEGERMVVSDFHVFVRDVLQHVDSMQKDYPGLPVFLLGHSMGGAIAILTAAERPGHFAGMVLISPLVLANPESATTFKVLAAKVLNLVLPNLSLGPIDSSVLSRNKTEVDIYNSDPLICRAGLKVCFGIQLLNAVSRVERALPKLTVPFLLLQGSADRLCDSKGAYLLMELAKSQDKTLKIYEGAYHVLHKELPEVTNSVFHEINMWVSQRTATAGTASPP [MGLL] | -0.16 | 0.0154 | -0.539 | 0.347
8 | MPLELTQSRVQKIWVPVDHRPSLPRSCGPKLTNSPTVIVMVGLPARGKTYISKKLTRYLNWIGVPTKVFNVGEYRREAVKQYSSYNFFRPDNEEAMKVRKQCALAALRDVKSYLAKEGGQIAVFDATNTTRERRHMILHFAKENDFKAFFIESVCDDPTVVASNIMEVKISSPDYKDCNSAEAMDDFMKRISCYEASYQPLDPDKCDRDLSLIKVIDVGRRFLVNRVQDHIQSRIVYYLMNIHVQPRTIYLCRHGENEHNLQGRIGGDSGLSSRGKKFASALSKFVEEQNLKDLRVWTSQLKSTIQTAEALRLPYEQWKALNEIDAGVCEELTYEEIRDTYPEEYALREQDKYYYRYPTGESYQDLVQRLEPVIMELERQENVLVICHQAVLRCLLAYFLDKSAEEMPYLKCPLHTVLKLTPVAYGCRVESIYLNVESVCTHRERSEDAKKGPNPLMRRNSVTPLASPEPTKKPRINSFEEHVASTSAALPSCLPPEVPTQLPGQNMKGSRSSADSSRKH [PFKFB3] | -0.103 | 2.73 | 0.713 | 0.239
9 | MPPKTPRKTAATAAAAAAEPPAPPPPPPPEEDPEQDSGPEDLPLVRLEFEETEEPDFTALCQKLKIPDHVRERAWLTWEKVSSVDGVLGGYIQKKKELWGICIFIAAVDLDEMSFTFTELQKNIEISVHKFFNLLKEIDTSTKVDNAMSRLLKKYDVLFALFSKLERTCELIYLTQPSSSISTEINSALVLKVSWITFLLAKGEVLQMEDDLVISFQLMLCVLDYFIKLSPPMLLKEPYKTAVIPINGSPRTPRRGQNRSARIAKQLENDTRIIEVLCKEHECNIDEVKNVYFKNFIPFMNSLGLVTSNGLPEVENLSKRYEEIYLKNKDLDARLFLDHDKTLQTDSIDSFETQRTPRKSNLDEEVNVIPPHTPVRTVMNTIQQLMMILNSASDQPSENLISYFNNCTVNPKESILKRVKDIGYIFKEKFAKAVGQGCVEIGSQRYKLGVRLYYRVMESMLKSEEERLSIQNFSKLLNDNIFHMSLLACALEVVMATYSRSTSQNLDSGTDLSFPWILNVLNLKAFDFYKVIESFIKAEGNLTREMIKHLERCEHRIMESLAWLSDSPLFDLIKQSKDREGPTDHLESACPLNLPLQNNHTAADMYLSPVRSPKKKGSTTRVNSTANAETQATSAFQTQKPLKSTSLSLFYKKVYRLAYLRLNTLCERLLSEHPELEHIIWTLFQHTLQNEYELMRDRHLDQIMMCSMYGICKVKNIDLKFKIIVTAYKDLPHAVQETFKRVLIKEEEYDSIIVFYNSVFMQRLKTNILQYASTRPPTLSPIPHIPRSPYKFPSSPLRIPGGNIYISPLKSPYKISEGLPTPTKMTPRSRILVSIGESFGTSEKFQKINQMVCNSDRVLKRSAEGSNPPKPLKKLRFDIEGSDEADGSKHLPGESKFQQKLAEMTSTRTRMQKQKMNDSMDTSNKEEK [RB1] | -0.0546 | 0.441 | 2.18 | 0.147
